This experiment has as its target CD11b/CD18 receptor on J774A.1 murine monocytes/macrophages (murine) (UniProt P05555). Kind of experiment: cell-based or functional assay.

Consider “CyaA/233OVA/K860R/AC- (from UniProt J7QLC0 1-1706)”, for which the Lysis of J774A.1 cells (% of AC-) is 72 % of AC-.

These data come from patent publication US9222143.
